Measurements from patent publication US20220220200A1 (NANJING IASO BIOTECHNOLOGY, published 2022).

T1: Biotinylated Human BCMA/TNFRSF17 Protein, Fc Tag, Avi Tag (BCMA-hFc-Bio) (human, UniProt Q02223 1-54, biotinylated (Avitag))
T1 construct: Bought protein; also called control antigen BCMA; unrelated antigen BCMA; not shown: Fc tag (hFc) and Avi tag
T1 sequence (looked up): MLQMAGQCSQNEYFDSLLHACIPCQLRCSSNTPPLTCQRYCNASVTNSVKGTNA

B1: #62 scFv phage antibody clone (scFv)
scFv: QSVVTQPPSVSGAPGQRVTISCTGSSSNIGAGYDVHWYQQLPGTAPKLLIYENTNRPSGVPDRFSGSKSGTSASLAITGLQAEDEADYYCQSYDSSLSGWRVFGGGTKLTVLGSRGGGGSGGGGSGGGGSLEMAEVQLVQSGAEVKKPGESLKISCKGSGYSFTNSWIGWVRQMPGKGLEWMGLIYPDDSDTRYSPSFQGQVTISADSAINTAYLQWSSLKASDTAMYYCARQSTYIYGGYYDTWGQGTLVTVSS
notes: The phage coat fusion is not described; also called clone #62; phage #62
B2: #78 scFv phage antibody clone (scFv)
scFv: QAVLTQPPSVSEAPRQRVTISCSGSSSNIGNNAVSWYQQLPGKAPKLLIYYDDLLPSGVSDRFSGSKSGTSASLAISGLQSEDEADYYCAAWDDSLNGWVFGGGTKVTVLGSRGGGGSGGGGSGGGGSLEEVQLVQSGAEVKKPGESLKISCKGSGYSFTSYWIGWVRQMPGKGLEWMGIIYPGDSDTRYSPSFQGQVTISADKSISTAYLQWSSLKASDTAMYYCARLSYSWSSWYWDFWGQGTLVTVSS
notes: The phage coat fusion is not described; also called clone #78; phage #78

How the values were obtained:
[1] = biological target: T1, Biotinylated Human BCMA/TNFRSF17 …; assay: phage ELISA, biotinylated antigen on streptavidin plate
Procedure: (§1) In ELISA preliminary screening, the streptavidin-biotin binding allowed the biotinylated target protein (CD19-hFc-Bio) and the control protein (BCMA-hFc-Bio) to be closer to native antigen conformation in the reaction solution. Clones that only bound to CD19-hFc-Bio but not to BCMA-hFc-Bio and streptavidin were considered specific. The FACS preliminary screening was performed using a cell line Raji with high expression of CD19 and Raji-CD19ko with knockout of CD19 molecules, and clones that only bind to Raji cells but not to Raji-CD19ko cells were considered specific. Through the two preliminary screenings based on ELISA and FACS respectively, we could obtain candidate antibodies that can not only bind to the recombinantly expressed CD19 protein but also recognize the native CD19 molecules on the cell surface for further screening.
(§2) Monoclonal antibodies were randomly selected from the enriched phage antibody pool, packaged into phages, and the binding of the monoclonal phage to CD19-hFc-Bio protein and BCMA-hFc-Bio protein was detected by phage ELISA to find CD19-specific phage antibody clones. Control 1 is FMC-63 ([…] anti-human CD19 phage antibody clone); and control 2 is non-CD19-bound scFv phage antibody clone. […]

Streptavidin = biological target: T2, Streptavidin (UniProt P22629 37-163, limits assumed); assay: phage ELISA, streptavidin-coated plate
T2 construct: Plate coating in the phage ELISA, tested as a control antigen; also called Strepavidin
Procedure: as §1, §2

T2 sequence (P22629 37-163 limits assumed): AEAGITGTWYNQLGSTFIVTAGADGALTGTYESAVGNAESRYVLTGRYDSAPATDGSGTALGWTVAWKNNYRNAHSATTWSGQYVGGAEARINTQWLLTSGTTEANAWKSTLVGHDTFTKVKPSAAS

| Binder | binding result [1] | binding result (Streptavidin) |
| --- | --- | --- |
| B1 | no binding | no binding |
| B2 | no binding | no binding |
